Consider one substance from paper PMC12084609, “Structural insights into small-molecule agonist recognition and activation of complement receptor C3aR” (The EMBO Journal, 2025).

One assay addresses T1, C3aR Y174^ECL2A (Homo sapiens, UniProt Q16581, Y174A).
T1 construct: expressed in transfected cells; host or cells: HEK293T
T1 sequence (Q16581 1-482 Y174A): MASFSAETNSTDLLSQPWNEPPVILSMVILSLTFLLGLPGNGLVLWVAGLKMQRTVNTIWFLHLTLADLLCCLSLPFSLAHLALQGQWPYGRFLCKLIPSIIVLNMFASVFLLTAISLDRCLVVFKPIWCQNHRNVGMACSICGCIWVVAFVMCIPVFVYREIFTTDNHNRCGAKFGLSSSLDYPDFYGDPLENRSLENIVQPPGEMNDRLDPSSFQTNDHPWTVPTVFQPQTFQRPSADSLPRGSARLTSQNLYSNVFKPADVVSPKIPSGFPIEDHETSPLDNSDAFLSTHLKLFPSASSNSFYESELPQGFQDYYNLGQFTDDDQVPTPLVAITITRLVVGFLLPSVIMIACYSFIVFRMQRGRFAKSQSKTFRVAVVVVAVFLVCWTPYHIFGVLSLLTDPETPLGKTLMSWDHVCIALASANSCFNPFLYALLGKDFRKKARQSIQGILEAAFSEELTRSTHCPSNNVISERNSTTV
Kind of assay: GloSensor-based cAMP assay, C3aR mutant Y174A. The format is cell-based. The note with it: for cAMP response (% Forskolin): Y174ECL2A, single replicates. The protocol: (§1) HEK293T cells were seeded on 6-well plates (NEST) and transfected with pGlosensor™-22F plasmids (Promega) and pcDNA3.1 plasmids encoding C3aR or its mutants an with N-terminal FLAG tag. After 48 h, cells were detached with Accutase solution (Sigma-Aldrich) and washed with PBS, and resuspended in assay buffer (CO2-independent medium with 0.5 mg mL^−1D-luciferin). 100,000–200,000 cells were seeded on 96-well white bottom plates (SPL) and incubated at 37 °C for 45 min followed by 45 min incubation at room temperature. After 90 min of incubation, basal luminescence signals were recorded. In total, 25 μl of test ligand with various concentrations and 1 μM Forskolin (Sigma-Aldrich) were treated to the cells and luminescence signals were measured by Tristar 2 LB 942 multimode reader (Berthold). […] Relative luminescence unit (%) was calculated with the signal of wells treated with vehicle as 0% and the signal of wells treated with 1 μM Forskolin as 100% (DiRaddo et al, [2014]). Nonlinear regression was performed using a three-parameter logistic equation.
For orientation: cAMP levels reflect the balance of adenylyl cyclase and phosphodiesterase activity.

In assay [1] the target is T2, C3aR I102^3.32A/I421^7.39A (Homo sapiens, UniProt Q16581, I102A/I421A).
T2 construct: expressed in transfected cells; host or cells: HEK293T
T2 sequence (Q16581 1-482 I102A/I421A): T1 sequence (Q16581 1-482 Y174A) with I102A, A174Y, I421A
The experiment in a line: GloSensor-based cAMP assay, C3aR double mutant I102A/I421A. The format is cell-based. The settings on record: for cAMP response (% Forskolin): single replicates. As to the method: as §1

Substitutions are numbered along the chain they refer to. Where “and” joins values, the source holds several entries; their conditions need not be identical. Identical values can stand only once.

What is called IC50 is the concentration that gives 50% inhibition. For “C3a: anaphylatoxin C3a, natural peptide ligand of C3aR (a 77-amino acid peptide), Sigma-Aldrich”, the “cAMP response (% Forskolin)” value in the assay with C3aR Y174^ECL2A (Log[C3a (M)] -11) was 98.42 % Forskolin and 110.81 % Forskolin and 110.05 % Forskolin and 103.42 % Forskolin and 89.46 % Forskolin; with C3aR Y174^ECL2A (Log[C3a (M)] -12) it was 91.57 % Forskolin and 98.11 % Forskolin and 107.79 % Forskolin and 100.25 % Forskolin and 103.20 % Forskolin; in assay [1] (I102A/I421A, Log[C3a (M)] -7) it was 60.33 % Forskolin and 51.98 % Forskolin and 58.06 % Forskolin; in assay [1] (I102A/I421A, Log[C3a (M)] -8) it was 94.58 % Forskolin and 89.45 % Forskolin and 91.46 % Forskolin; in assay [1] (I102A/I421A, Log[C3a (M)] -9), 96.12 % Forskolin and 94.02 % Forskolin and 96.29 % Forskolin; in assay [1] (I102A/I421A, Log[C3a (M)] -10) it was 100.40 % Forskolin and 98.48 % Forskolin and 97.75 % Forskolin. The “cAMP response (% Forskolin)” value was 101.76 % Forskolin and 98.75 % Forskolin and 98.69 % Forskolin in assay [1] (I102A/I421A, Log[C3a (M)] -11); 99.03 % Forskolin and 95.31 % Forskolin and 95.64 % Forskolin in assay [1] (I102A/I421A, Log[C3a (M)] -12); 17.14 % Forskolin and 17.92 % Forskolin and 21.78 % Forskolin in assay [1] (I1023.32A/I4217.39A, Log[C3a (M)] -7); 50.03 % Forskolin and 58.06 % Forskolin and 57.92 % Forskolin in assay [1] (I1023.32A/I4217.39A, Log[C3a (M)] -8); 101.91 % Forskolin and 104.37 % Forskolin and 102.64 % Forskolin in assay [1] (I1023.32A/I4217.39A, Log[C3a (M)] -9); 108.19 % Forskolin and 105.12 % Forskolin and 103.38 % Forskolin in assay [1] (I1023.32A/I4217.39A, Log[C3a (M)] -10). Besides, the “cAMP response (% Forskolin)” value in assay [1] (I1023.32A/I4217.39A, Log[C3a (M)] -11) is 107.31 % Forskolin and 106.77 % Forskolin and 101.12 % Forskolin; in assay [1] (I1023.32A/I4217.39A, Log[C3a (M)] -12) it was 98.25 % Forskolin and 100.53 % Forskolin and 100.03 % Forskolin. Besides, the “ΔpIC50 ± SE of Diff.” value with C3aR Y174^ECL2A (Y174^ECL2A relative to WT C3aR) is -0.59 ± 0.09; in assay [1] (I102^3.32A/I421^7.39A relative to WT C3aR), -0.51 ± 0.05. For the same substance, the IC50 with C3aR Y174^ECL2A (Y174^ECL2A, dose-response plot, read-out: IC50) was found to be 8.35 nM; in assay [1] (I102^3.32A/I421^7.39A, dose-response plot, read-out: IC50), 10.1 nM. The “pIC50 (Replicate)” value is 8.26 and 8.28 and 8.32 and 7.39 and 7.92 with C3aR Y174^ECL2A (Y174^ECL2A, individual replicates); 8.09 and 7.94 and 7.95 in assay [1] (I102^3.32A/I421^7.39A, individual replicates). The “pIC50 ± SEM (Mean)” value with C3aR Y174^ECL2A (Y174^ECL2A, mean of independent experiments) was determined as 8.04; in assay [1] (I102^3.32A/I421^7.39A, mean of independent experiments), 7.99.
